Experiments:
[1] = system: RirA wild type (Rhizobium leguminosarum strain 8401); experiment: SPR; settings: SPR: 10 mM Hepes, 150 mM NaCl, 0.05% Tween, pH 7.4, 20 °C, 0-125 nM dimer; EMSA: 10 mM Hepes, 50 mM NaCl, 2.5% sucrose, 2.5 mM MgCl2, 1 mM DTT, pH 7.9, on ice …
[2] = system: RirA N8D (Rhizobium leguminosarum strain 8401?); experiment: SPR; settings: SPR: 10 mM Hepes, 150 mM NaCl, 0.05% Tween, pH 7.4, 20 °C, 0-125 nM dimer; EMSA: 10 mM Hepes, 50 mM NaCl, 2.5% sucrose, 2.5 mM MgCl2, 1 mM DTT, pH 7.9, on ice …

With fhuA IRO box 30 bp SPR oligo as the substance, how does the Kd [1] read?
The Kd was 12.8 nM.

What about the Kd [2] of the same substance?
The Kd was 10.3 nM.

Source: paper PMC10510648
